Results: patent publication US12161669 (UMC UTRECHT HOLDING B V, dated 2024)

Target: the molecule itself
Experiment: flow cytometry FRET between anti-CD277-PE (donor) and anti-CD277-DyLight 680 (acceptor) on HEK 293 cells, medium or pamidronate (ABP)

B1: CD277 (butyrophilin BTN3A1) expressed on cells (Daudi, HEK 293, EBV-LCL 48) (receptor)
chain: not shown
notes: whole, on cells; The anti-CD277 antibodies may also see other BTN3 isoforms; also called CD277J
binding result: binds
